We go through six molecules from patent US20190382484A1 (Chugai, published 2019).

Positions count from the first letter of the chain named.

Test [1] deals with T1, antibody-half molecule A1 with PF1H / PF1L-k0 (PF1H-DA303v2/PF1L-k0). Nature of the test: SPR (Biacore T200), about 50 RU of half molecule A captured via biotinylated antigen peptide, half molecule B as analyte at 2.5 mg/mL, 25 C. On the procedure: (§1) The interaction between the obtained antibody-half molecules was analyzed using Biacore (registered trademark) T200. Biotin CAPture Kit, Series S (GE Healthcare) was used for the measurement, and HBS-EP+10X (GE Healthcare) diluted 1/10th was used as a running buffer. The measurement temperature was 25° C. For the sensor chip, Series S Sensor Chip CAP (GE Healthcare) onto which previously-biotinylated antigen peptides were allowed to interact and thereby immobilized was used. These chips were allowed to capture approximately 50 RU of the antibody-half molecule A of interest and then interact with the antibody-half molecule B of interest diluted with the running buffer at 2.5 mg/mL for 180 seconds at a flow rate of 30 μL/min, and measurement was carried out. The molar binding ratio was calculated based on the following Formula 2. The antibody-half molecule A captured on the chip was washed as described in the instructions attached to the kit, and the chip was regenerated and reused.
(§2) At this time, for the antibody-half molecules to be captured, PF1H (SEQ ID NO: 22), which is the H chain variable region portion of the anti-human IL6 receptor antibody described in WO 2009/041621, was used as the H chain variable region portion, PF1L (SEQ ID NO: 23), which is the L chain variable region portion of the anti-human IL6 receptor antibody described in WO 2009/041621, was used as the L chain variable region portion, and k0 was used as the L chain constant region portion. In addition, for the antibody-half molecules used as analytes, IC17H (SEQ ID NO: 24), which is the anti-KLH antibody described in WO 2015/174439, was used as the H chain variable region, IC17L (SEQ ID NO: 25), which is the anti-KLH antibody described in WO 2015/174439, was used as the L chain variable region, and k0 was used as the L chain constant region.

For test [2], the target named is T1, antibody-half molecule A1 with PF1H / …. In words: SPR (Biacore T200), about 50 RU of half molecule A captured via biotinylated antigen peptide, half molecule B as analyte at 2.5 mg/mL, 25 C (Example 10). As to the method: as §1
(§3) At this time, for the antibody-half molecule to be captured, PF1H (SEQ ID NO: 22), which is the H chain variable region portion of the anti-human IL6 receptor antibody described in WO 2009/041621, was used as the H chain variable region portion, PF1L (SEQ ID NO: 23), which is the L chain variable region portion of the anti-human IL6 receptor antibody described in WO 2009/041621, was used as the L chain variable region portion, and k0 was used as the L chain constant region portion. In addition, for the antibody-half molecules used as analytes, IC17H (SEQ ID NO: 24), which is the anti-KLH antibody described in WO 2015/174439, was used as the H chain variable region, IC17L (SEQ ID NO: 25), which is the anti-KLH antibody described in WO 2015/174439, was used as the L chain variable region, and k0 was used as L chain constant region.
A general note: SPR reads the build-up and loss of mass on a sensor chip optically.

Test [3] has as its target antibody-half molecule A5 with PF1H / PF1L-k0 (PF1H-DA430v2/PF1L-k0). In words: SPR (Biacore T200), about 50 RU of half molecule A captured via biotinylated antigen peptide, half molecule B as analyte at 2.5 mg/mL, 25 C. As to the method: as §1, §2
The target of test [4] is antibody-half molecule A4 with PF1H / PF1L-k0 (PF1H-DA424v2/PF1L-k0). The test is described as above. On the procedure:
as §1, §2

Test [5] has as its target antibody-half molecule A7 with PF1H / PF1L-k0 (PF1H-DA303v2.n.HATF.B/PF1L-k0). Nature of the test: SPR (Biacore T200), about 50 RU of half molecule A captured via biotinylated antigen peptide, half molecule B as analyte at 2.5 mg/mL, 25 C (Example 10). As to the method: as §1, §3
The target of test [6] is antibody-half molecule A6 with PF1H / PF1L-k0 (PF1H-DA303v2.n.n/PF1L-k0). The test is described as above. On the procedure:
as §1, §3

In test [7] the target is antibody-half molecule A3 with PF1H / PF1L-k0 (PF1H-DA405v2/PF1L-k0). Nature of the test: SPR (Biacore T200), about 50 RU of half molecule A captured via biotinylated antigen peptide, half molecule B as analyte at 2.5 mg/mL, 25 C. On the procedure:
as §1, §2

B1: antibody-half molecule B1 with IC17H / IC17L-k0 (IC17H-DB220v2/IC17L-k0) (antibody, human IgG1, kappa)
heavy: QVQLQQSGPQLVRPGASVKISCKASGYSFTSYWMHWVNQRPGQGLEWIGMIDPSYSETRLNQKFKDKATLTVDKSSSTAYMQLSSPTSEDSAVYYCALYGNYFDYWGQGTTLTVSSASTKGPSVFPLAPSSKSTSGGTAALGCLVKDYFPEPVTVSWNSGALTSGVHTFPAVLQSSGLYSLSSVVTVPSSSLGTQTYICNVNHKPSNTKVDKKVEPKSCDKTHTSPPSPAPELLGGPSVFLFPPKPKDTLMISRTPEVTCVVVDVSHEEPEVKFNWYVDGVEVHNAKTKPREEQYNSTYRVVSVLTVLHQDWLNGKEYKCKVSNDALPMPIEETISKAKGQPREPQVYTLPPSRDELTKNQVSLTCLVKGFYPSDIAVEWESNGQPENNYKTTPPYLDSDGSFFLYSDLTVDKSRWQQGNVFSCSVMHEALHNHYTQESLSLSP
light: DIQMTQSSSSFSVSLGDRVTITCKASEDIYNRLAWYQQKPGNAPRLLISGATSLETGVPSRFSGSGSGKDYTLSITSLQTEDVATYYCQQYWSTPYTFGGGTKLEVKRTVAAPSVFIFPPSDEQLKSGTASVVCLLNNFYPREAKVQWKVDNALQSGNSQESVTEQDSKDSTYSLSSTLTLSKADYEKHKVYACEVTHQGLSSPVTKSFNRGEC
As for B1, the molar binding ratio in test [1] is 0.38; in test [2], 0.54.

B2: antibody-half molecule B5 with IC17H / IC17L-k0 (IC17H-DB430v2/IC17L-k0) (antibody, human IgG1, kappa)
heavy: B1 heavy with E356L
light: B1 light
Regarding B2, the molar binding ratio in test [3] turned out to be 0.27.

B3: antibody-half molecule B4 with IC17H / IC17L-k0 (IC17H-DB424v2/IC17L-k0) (antibody, human IgG1, kappa)
heavy: B1 heavy with E356N
light: B1 light
With B3, the molar binding ratio in test [4] is 0.25.

B4: antibody-half molecule B7 with IC17H / IC17L-k0 (IC17H-DB220v2.n.HATF.A/IC17L-k0) (antibody, human IgG1, kappa)
heavy: B1 heavy with S363H, F404A, E438K
light: B1 light
On to B4, for which the molar binding ratio in test [5] came to 0.32.

B5: antibody-half molecule B6 with IC17H / IC17L-k0 (IC17H-DB220v2.n.n/IC17L-k0) (antibody, human IgG1, kappa)
heavy: B1 heavy with E438K
light: B1 light
Consider B5, for which, in test [6], the molar binding ratio was 0.42.

B6: antibody-half molecule B3 with IC17H / IC17L-k0 (IC17H-DB405v2/IC17L-k0) (antibody, human IgG1, kappa)
heavy: B1 heavy with D408T
light: B1 light
In the case of B6, the molar binding ratio in test [7] amounted to 0.54.
